# Several values for one entry are separate records, joined by “and”; a condition that tells them apart may be missing. Identical values can stand only once. Like-named read-outs stand apart in the source and are kept apart here.
# Assays:
# [1] = Pharmacokinetics of I-125 labeled t-PA, i.v. bolus in rabbits; assay type: in vivo, rabbit; parameters: B0 / t1/2b / A0 / AUMC × 10^- 6: unit not given here; conditions: carrier 1 mg/kg cold rt-PA; for CL (clearance rate): natural t-PA
# Procedure: Comparative pharmacokinetic studies were performed in rabbits. I-125 labeled test t-PA, either wild type or N44 variant, 5 uCi/kg with a specific activity of 5 to 10 uCi/ug, and carrier wild type t-PA, 1.0 mg/kg, were coinjected, serial blood samples were collected, plasma prepared and the TCA (trichloroacetic acid) precipitable counts were determined at each time point. TCA precipitation was used in order to remove any small metabolites which appear at later times due to degradation of t-PA by the liver. The plasma concentration time curve for rt-PA was fit to a biexponential equation C-Aexp(-alphaXt)+Bexp(-betaXt). The curve for the des (1-44) rt-PA was fit to a monoexponential equation C-Aexp(-alphaXt). The clearance (Cl) was calculated by the formula Cl-DOSE/AUC, where AUC is the area under the plasma concentration time curve. […]
# [2] = test system: plasminogen; assay: In vitro plasminogen activation, two-stage assay with plasmin specific substrate S-2251; assay type: biochemical
# Procedure: The ability of t-PA to activate plasminogen can be measured in an in vitro assay by preincubating t-PA and plasminogen and then adding the plasmin specific substrate H-D-valyl-H-leucyl-H-lysine-p-nitronilide (S-2251). The maximum rate of this reaction is observed in the presence of fibrin(ogen) or fragments of fibrin(ogen) which act as stimulators of the reaction.
# The plasmin specific substrate S-2251 was used in a two-stage assay to measure the ability of the sample to activate plasminogen. Fibrin clots were made by incubating the sample with 0.02 ml of a 20 mg/ml fibrinogen solution with 1U of thrombin in a total volume of 0.12 ml of 0.05M Tris-HCl, 0.12M NaCl, 0.01% Tween 80, pH 7.4 for 30 min. at 37' C. Alternatively, the thrombin could be omitted and fibrinogen used as the stimulator. Glu-plasminogen solution, 0.03 ml of a 2.1 mg/ml solution, was then added. After 10 min at 37' C., 0.35 ml of 2.86 mM S-2251 in 0.037M Tris, 0.86 NaCl, 0.007% Tween 80, pH 7.4) were added. This mixture was incubated for five minutes then the reaction was stopped by the addition of 0.1 ml of 50% glacial acetic acid. Absorbance at 405 nm was measured. The activity was expressed as the change in absorbance per nanogram per minute in the presence of substrate.
# The stimulation is the ratio of the specific activity of the sample containing fibrin and the specific activity of the sample not containing fibrin.
# [3] = In vitro protease amidolytic assay with S-2288 substrate; assay type: biochemical; conditions: S-2288, 23 nM protein, pH 7.4
# Procedure: The activity of des (1-44) t-PA in a protease amidolytic assay was compared to that of natural t-PA using the S-2288 paranitroanilide chromogenic substrate (Helena Labs). The S-2288 paranitroanilide substrate provides a direct measurement of protease amidolytic activity. The kinetic constants for t-PA and des 1-44 t-PA were determined with the S-2288 substrate using an H-P diode array spectrophotometer (HP8451-A). Hydrolysis of the substrate was measured continuously at two substrate concentrations (1.0 mM and 0.1 mM) while the protein concentrations were held constant at 23 nM in a buffer composed of 0.05M Tris-HCl, 0.12M NaCl, 0.01% Tween 80, pH 7.4. Using the differential form of the Michaelis-Menten equation and a non-linear regression the Km and Vmax were calculated from the curves of the progress of the reaction.
# [4] = rabbits; cited from earlier work
# [5] = monkeys; cited from earlier work
# [6] = test system: fibrin clot; assay: In vitro fibrin clot lysis assay with saturating plasminogen; assay type: biochemical; conditions: t-PA = 1.0
# Description: In order to further compare the ability of des 1-44 t-PA to activate plasminogen in the presence of fibrin(ogen), it was compared to t-PA in an assay which measures the ability of t-PA and saturating plasminogen to lyse a fibrin clot.
# [7] = cited from earlier work
# [8] = individual rabbits #A, #C, #E, #G
substance,measurement,setting,value
"natural t-PA: human tissue plasminogen activator, amino acids 1-527, whether obtained from natural or recombinant sources",AUMC × 10^- 6,[1]; MEAN,601.493
same,VDSS,[1]; MEAN,0.213336 L/kg
same,t1/2b,[1]; MEAN,28.868
same,A0,"[1]; MEAN, biexponential fit",275201
same,B0,"[1]; MEAN, biexponential fit",30352.649
same,t1/2a,"[1]; MEAN, unit from b248, listed as rT-PA",3.067 min
same,t1/2a,"[1]; MEAN, unit from b248, listed as rt-PA",about 3.1 minutes
same,CL (clearance rate),"[1]; MEAN, listed as rT-PA",0.5014 L/h/kg
same,CL (clearance rate),"[1]; MEAN, listed as rt-PA",about 8.4 ml/min/kg
same,A0,[1]; [8],247990 and 306059 and 255904 and 290852
same,AUMC × 10^- 6,[1]; [8],789.510 and 452.925 and 637.710 and 525.828
same,B0,[1]; [8],30144.320 and 32920.033 and 27005.306 and 31340.936
same,CL,[1]; [8],0.4238 L/h/kg and 0.5533 L/h/kg and 0.514 L/h/kg and 0.5146 L/h/kg
same,VDSS,[1]; [8],0.209553 L/kg and 0.197899 L/kg and 0.232427 L/kg and 0.213466 L/kg
same,t1/2a,[1]; [8],3.716 min and 2.645 min and 3.334 min and 2.575 min
same,t1/2b,[1]; [8],33.236 and 23.987 and 31.782 and 26.467
same,Stim (stimulation: specific activity with / without),[2]; With Fibrin Clots,100
same,rel (relative activity),"[2]; With Fibrin Clots, relative to t-PA",100%
same,Stim (stimulation: specific activity with / without),[2]; With Fibrinogen,100
same,+Fgn rel (relative activity),"[2]; With Fibrinogen, relative to t-PA",100%
same,increase of activity in the presence of fibrin,[2]; in the presence of fibrin,about 50 fold
same,kcat,[3],17.9 s⁻¹
same,nominal half-life,[4],about 2 minutes
same,nominal half-life,[5],~3.5 min
same,Clot lysis (relative units),[6],1.0 relative units
same,t1/2b,[7]; beta phase,about 30 minutes
same,t1/2a,[7]; dominant alpha phase,about 2.2 minutes
same,t1/2a component,[7]; where Co=100,about 95%
same,t1/2b component,[7]; where Co=100,about 5%

# Source: patent US5037646A, “Processes for the treatment of vascular disease” (Genentech, Inc., priority 1990, dated 1991)
